Entries after “also recorded” stand apart in the source; their conditions may differ. Read-outs that look alike come from different tables or passages of the source.

Series [1] in a line: Qualitative HPLC detection of PDH activity in E. coli cell lysates expressing candidate enzymes. It is filed as biochemical. To be noted: 2 mM prephenate, saturating conditions. As to the method: ADH and PDH reactions contained 25 mM HEPES (pH 7.5), 50 mM KCl, 10% ethylene glycol, 1 mM NADP (or NAD^+), 2 mM substrate (L-arogenate or prephenate, respectively) unless otherwise noted. Arogenate was prepared by enzymatic conversion from prephenate (Sigma-Aldrich), as previously reported. Reactions were started by addition of enzyme from various sources and incubated at 37′ C. for a given amount of time, as noted below,
HPLC-based methods were used to directly detect the final products of ADH and PDH assays, Tyr and HPP, respectively from crude E. coli extracts (FIG. 3B and FIG. 3C) and crude plant extracts (FIG. 2A and FIG. 6). For HPLC detection of PDH activity, reactions were incubated for 45 min and terminated by addition of NaBH4, which converts the reaction product HPP (which produced multiple peaks; FIG. 6) into hydroxyphenyllactic acid (HPLA), followed by neutralization with 100 μl of 6 N HCl. The conversion and recovery rate was 80±1.5% s.d. which was taken into account for the calculation of specific activity from crude plant extracts (FIG. 2C). HPLA was detected as a single peak (FIG. 2A) after being separated by HPLC (Agilent 1260, Santa Clara, Calif.) equipped with a ZORBA X SB-C18 column (Agitent) using a 6-min isocratic elution at 25% methanol in 0.1% phosphoric acid, followed by a 20-min linear gradient of 25-60% methanol at a flow rate of 1.0 ml/min. HPLA was detected using UV absorbance at 270 nm and quantified by a calibration curve generated from the authentic HPLA standard (Sigma-Aldrich). For HPLC-based detection of ADH activity (FIG. 3B), reactions were incubated for 45 min and terminated by addition of methanol to a final concentration of 66% (v/v). The product, Tyr, was derivatized with OPA and separated on a ZORBAX eclipse-XDB C18 column (Agilent) using a 30-min linear gradient of 20-45% methanol in 0.1% animonium acetate at a flow rate of 0.8 ml/min. Tyr was detected by UV absorption at 336 nm and quantified on the basis of a calibration curve generated by the authentic Tyr standard (Acros, Geel, Belgium).
The crude enzyme extracts were first subjected to PDH and ADH assays using saturating conditions to screen for any detectable PDH and/or ADH activity (FIG. 3B and FIG. 3C). ADH activity was detected from all five candidates. In contrast, PDH activity was detected only in Glyma11a35760 and Glyma18g02650 as well as their closest homolog from Medicago (Mt3g071980) but not in Glyma5g07870, Glyma17g13150 and Glyma14g05990 (FIG. 3C).

Series [2] is described as follows: Inhibition analysis: effect of HPP on PDH activity of purified recombinant enzymes. The conditions noted are these: purified recombinant enzyme. It is filed as biochemical. As for the experimental part:
(§1) ADH and PDH reactions using GmPDH1, Glyma11g35760, MtPDH1 and AtADH2 (FIG. 5A) contained 200 mM HEPES (pH 7.3), 50 mM KCl, 10% ethylene glycol, 1 mN4 NADP^+ and 1 mM substrate (L-arogenate or prephenate, respectively). Reactions were started by addition of enzyme and incubated at 37° C. for 15 min in the presence of increasing concentrations of effectors: L-Tyr FIG. 5A), L-Phe, L-Trp and HPP. Tyr was dissolved in basic conditions (0.025 N NaOH) to dissolve at high concentrations (up to 10 mM), though 200 mM HEPES maintained the final reaction pH at 7.6. Tyr sensitivity of purified recombinant GmPDH1 and MtPDH1 was also tested at prephenate concentrations ranging from […] to 59 μM, below the K values for GmPDH1 and MtPDH1, while keeping the L-Tyr concentration constant at 1 mM (FIG. 13). Enzyme activity was measured for the production of reduced cofactor (NADPH) at 340 nm using a spectrophotometer, except for crude soybean extracts, which were analyzed by HPLC after 45 min incubation and reduction to HPLA as described above.

The nature of series [3]: Inhibition analysis: effect of L-Phe on PDH activity of purified recombinant enzymes. Type of series: biochemical. The conditions noted are these: purified recombinant enzyme. As for the experimental part: as §1
Series [4] can be described thus: Kinetic analysis of purified recombinant enzymes, PDH activity. It is filed as biochemical. As to the method: (§2) Kinetic parameters of purified recombinant GmPDH1 and MtPDH1 for ADH activity (Table 3) were determined from assays conducted using varying L-arogenate concentrations (39 μM to 5 mM). Assays were incubated for 15 min with 0.5 mM NADP^+, by placing on ice and quantified by measuring production of NADPH by absorbance at 340 nm. Kinetic parameters of purified recombinant GmPDH1 and MtPDH1 for PDH activity (Table 3) were determined from assays conducted using varying prephenate concentrations (29 μM to 3.5 mM). Assays with 0.5 mM NADP^+ were monitored continuously at 340 nm using a microplate reader (Tecan GENios, Zurich, Switzerland) for 7 min. Kinetic parameters were determined using hyperbolic regression analysis in Hyper (http://homepage.ntlworld.com/john.eastetby/software.html). Enzyme assays were carried out at a protein concentration and reaction time that were in the linear range and proportional to reaction velocity. The final enzyme concentrations of the purified recombinant GmPDH1 and MtPDH1 were 0.9 μg/ml and 0.7 μg/ml for PDH activity and 3.0 μg/ml and 1.4 μg/ml for ADH activity, respectively.

Series [5] in a line: Inhibition analysis: effect of L-Trp on PDH activity of purified recombinant enzymes. The conditions noted are these: purified recombinant enzyme. Type of series: biochemical. As to the method:
as §1

Series [6] can be described thus: Substrate and electron acceptor preference of purified recombinant enzymes, ADH activity. The conditions noted are these: with NADP+ or NAD+, compared with PDH activity. It is filed as biochemical. As to the method: (§3) To test the electron acceptor and substrate preference of purified recombinant enzymes (FIG. 12), we incubated reactions for 15 min with 1.5 mM substrate (L-arogenate or prephenate) and 1 mM cofactor (NAD^+ or NADP^+). Assays were conducted with decreasing enzyme concentrations and stopped by placing on ice, and the production of reduced cofactor, NAD(P)H, was Measured at 340 nm using a spectrophotometer (NanoDrop 2000, Thermo).

Series [7] in a line: Substrate and electron acceptor preference of purified recombinant enzymes, PDH activity. The conditions noted are these: with NADP+ and to a lesser extent NAD+. It is filed as biochemical. As to the method:
as §3

A short description of series [8]: Inhibition analysis: L-Tyr sensitivity of PDH activity of purified recombinant GmPDH1 and MtPDH1. It is filed as biochemical. The conditions noted are these: for effect of L-Tyr on PDH activity at low (non-saturating) prephenate concentrations: 1 mM L-Tyr, prephenate 15 mM to 59 μM; for effect of L-Tyr on PDH activity at low (non-saturating) prephenate concentrations / PDH activity: 1 mM NADP+; for PDH activity: purified recombinant enzyme, 1 mM prephenate; for inhibition of PDH activity by L-Tyr: up to 10 mM of L-Tyr. As to the method:
as §1

Series [9] is described as follows: Kinetic analysis of purified recombinant enzymes, ADH activity. To be noted: substrate L-arogenate (ADH activity), 37° C., 0.5 mM NADP+, mean ± s.e.m. Type of series: biochemical. As to the method: as §2
For series [10] the following is noted: literature values; read-out: Km for prephenate of other plant and microbial PDHs; cited from earlier work.
Setting [11] is: cofactor NADP+, read-out: apparent Km for prephenate.
Where [12] appears, read: substrate prephenate (PDH activity), 37° C., 0.5 mM NADP+, mean ± s.e.m.
[13] abbreviates: substrate prephenate (PDH activity), 37° C., 0.5 mM NADP+, mean ± s.e.m., read-out: Km.

B1: GmPDH1: soybean prephenate dehydrogenase enzyme, recombinant, insensitive to L-Tyr (protein)
chain: MSTSSSSQSLKIGIVGFGNFGQFLAKTMIKQGHTLTATSRSDYSELCLQMGIHFFRDVSAFLTADIDVIVLCTSILSLSEVVGSMPLTSLKRPTLFVDVLSVKEHPRELLLRELPEDSDILCTHPMFGPQTAKNGWTDHTFMYDKVRIRDEVICSNFIQIFATEGCKMVQMSCEEHDRAAAKSQFITHTIGRTLGEMDIQSTPIDTKGFETLVKLKETMMRNSFDLYSGLFVYNRFARQELENLEHALHKVKETLMIQRTNGEQGHKRTES
modifications: Glycine max
notes: soybean prephenate dehydrogenase enzyme, recombinant, insensitive to L-Tyr
Regarding B1, the “PDH activity (qualitative detection)” value in series [1] is on record as “detected”. Besides, the “effect of HPP on PDH activity” value in series [2] was “did not reduce; also recorded: None of the tested molecules significantly reduced PDH activity”. Besides, the “effect of L-Phe on PDH activity” value in [3] is on record as “did not reduce; also recorded: None of the tested molecules significantly reduced PDH activity”. The figures for the Michaelis constant (Km) in series [4] (setting [11]), in series [4] (setting [13]) and in [9] were 127 µM, 127 ± 20 µM and 17 mM, respectively. For the same molecule, the Vmax in series [4] (setting [12]) is 800 ± 21 nKat mg^−1; in [9] it was 307 ± 56 nKat mg^−1. For the same molecule, the kcat (in general, the maximal rate divided by the concentration of active sites) in series [4] (setting [12]) was found to be 26.3 ± 0.7 s⁻¹; in series [4] (substrate prephenate (PDH activity), 37° C., 0.5 mM NADP+, mean ± s.e.m., listed as Glyma18g02650) it was 26 s⁻¹; in series [9], 10.1 ± 1.8 s⁻¹. Further, in series [5], the “effect of L-Trp on PDH activity” value is on record as “did not reduce; also recorded: None of the tested molecules significantly reduced PDH activity”. Moreover, the “ADH activity of purified recombinant enzyme” value in [6] is “much weaker ADH activity”. In addition, the “PDH activity of purified recombinant enzyme” value in series [7] is on record as “strong PDH activity”. In series [8], the “effect of L-Tyr on PDH activity at low (non-saturating) prephenate concentrations” value is “did not affect; also recorded: no effect”. Also, the PDH activity in series [8] (L-Tyr 0 mM) is on record as 1059 ± 69 nKat/mg; in series [8] (L-Tyr 0.01 mM), 1064 ± 52 nKat/mg; in [8] (L-Tyr 0.1 mM), 1103 ± 55 nKat/mg; in series [8] (L-Tyr 1.0 mM) it was 1065 ± 44 nKat/mg; in [8] (L-Tyr 10 mM), 1152 ± 101 nKat/mg. In addition, the “inhibition of PDH activity by L-Tyr” value in [8] is recorded as “not inhibited”.

B2: M. tuberculosis PDH: microbial prephenate dehydrogenase from the literature (protein, UniProt O69721 1-323, looked up)
Prephenate dehydrogenase: MTRTVAAPPVCVLGLGLIGGSIMRAAAAAGREVFGYNRSVEGAHGARSDGFDAITDLNQTLTRAAATEALIVLAVPMPALPGMLAHIRKSAPGCPLTDVTSVKCAVLDEVTAAGLQARYVGGHPMTGTAHSGWTAGHGGLFNRAPWVVSVDDHVDPTVWSMVMTLALDCGAMVVPAKSDEHDAAAAAVSHLPHLLAEALAVTAAEVPLAFALAAGSFRDATRVAATAPDLVRAMCEANTGQLAPAADRIIDLLSRARDSLQSHGSIADLADAGHAARTRYDSFPRSDIVTVVIGADKWREQLAAAGRAGGVITSALPSLDSPQ
For the molecule B2, in series [10], the Km (usually the substrate concentration at which the rate is half of its maximum) was 410 µM.

B3: MtPDH1: Medicago truncatula prephenate dehydrogenase enzyme, recombinant, insensitive to L-Tyr (protein, listed as Medicago truncatula)
chain: MSSSSKSLKIGIVGFGTFGQFLANTMIKQGHTLTATSRTDYSQLCDQMGIHFFRDITAFLDADMDVILLCTSISSLSEVVGSMPLACLKRPTLFVDVLSVKEHPKNLLLKVLPEESDILCTHPMFGPVSGKNGWQNLTFMFDKVRIKDEVTCSKFLQIFASEGCKMVEMSCEEHDKAAAKSQFITHTIGRTLAEMDIKSTPIDTKGFQTLVELKKPVMGCSFDLYSGLFVYNRFARQELENLEHALHKVKEMLVQRIDEGQNPERTES
Turning to B3, the “PDH activity (qualitative detection)” value in [1] is recorded as “detected”. Besides, the “effect of HPP on PDH activity” value in series [2] is on record as “did not reduce; also recorded: None of the tested molecules significantly reduced PDH activity”. Besides, the “effect of L-Phe on PDH activity” value in series [3] is reported as “did not reduce; also recorded: None of the tested molecules significantly reduced PDH activity”. The Km amounted to 223 µM in series [4] (setting [11]), 223 ± 20 µM in series [4] (setting [13]), 42.5 ± 21.8 mM in series [9] and 43 mM in series [9] (listed as Mt3g071980). The Vmax was 655 ± 73 nKat mg^−1 in [4] (setting [12]) and 229 ± 96 nKat mg^−1 in [9]. In addition, the catalytic constant (kcat) in series [4] (setting [12]) was 21.8 ± 2.4 s⁻¹; in [4] (substrate prephenate (PDH activity), 37° C., 0.5 mM NADP+, mean ± s.e.m., listed as Mt3g071980) it was 22 s⁻¹; in series [9], 5.5 ± 3.2 s⁻¹. Moreover, the “effect of L-Trp on PDH activity” value in series [5] is on record as “did not reduce; also recorded: None of the tested molecules significantly reduced PDH activity”. Also, the “ADH activity of purified recombinant enzyme” value in series [6] is listed as “much weaker ADH activity”. For the same molecule, in series [7], the “PDH activity of purified recombinant enzyme” value is reported as “strong PDH activity”. The “effect of L-Tyr on PDH activity at low (non-saturating) prephenate concentrations” value in series [8] is listed as “did not affect; also recorded: no effect”. The PDH activity was 579 ± 28 nKat/mg in [8] (L-Tyr 0 mM); 604 ± 22 nKat/mg in series [8] (L-Tyr 0.01 mM); 610 ± 7 nKat/mg in [8] (L-Tyr 0.1 mM); 641 ± 19 nKat/mg in series [8] (L-Tyr 1.0 mM); 652 ± 56 nKat/mg in [8] (L-Tyr 10 mM). In series [8], the “inhibition of PDH activity by L-Tyr” value is reported as “not inhibited”.
